This experiment deals with Arp2/3 complex (Bos taurus, UniProt A7MB62, CK-666). The experiment in a line: fluorescence anisotropy. On the technique in general: Polarisation of emitted light reports the rotation of a fluorescent probe.

B1: cortactin NTA N-terminal acidic region (protein)
chain: MWKASAGHAVSIAQDDAGADDWETDPDFVNDVSEKEQRWGAKTVQGSGHQEHINIHKLRENVFQEHQTLKEKELETGPKASHGY
The term Kd denotes a measure of binding affinity in units of concentration. A high value points to a looser complex. Molecule B1 yielded a Kd of 1200 nM.

The record behind these values is article PMC3684959 (2013).
